# Assay results published in publication PMC6554723.
# B1: purified recombinant RGS14 (Regulator of G Protein Signaling 14), O08773 1-544 (natural protein)
# chain: MPGKPKHLGVPNGRMVLAVSDGELTSTSGSQAQGEGRGSSLSIHSLPSGPSSPFSTDEQPVASWAQSFERLLQDPRGLAYFTEFLKKEFSAENVTFWQACERFQQIPASDTKQLAQEAHNIYHEFLSSQALSPVNIDRQAWLSEEVLAQPRPDMFRAQQLQIFNLMKFDSYARFVKSPLYQECLLAEAEGRPLREPGSSHLGSPDTARKKPKLKPGKSLPLGVEELGQLPLAEGRPLRKSFRREMPGGAVNSALRRESQGSLNSSASLDLGFLAFVSSKSESHRKSLGSGEGESESRPGKYCCVYLPDGTASLALARPGLTIRDMLAGICEKRGLSLPDIKVYLVGKEQKALVLDQDCTVLADQEVRLENRITFQLELVGLERVVRISAKPTKRLQEALQPILAKHGLSLDQVVLHRPGEKQLVDLENLVSSVASQTLVLDTLPDAKTREASSIPPCRSQGCLPRTQTKDSHLPPLSSSLSVEDASGSTGKRQTCDIEGLVELLNRVQSSGAHDQRGLLRKEDLVLPEFLQLPSQRPGSQEAPP
# modifications: here or on the partner: dansyl label (site not stated)
# Target: dansyl-CaM (dansylated calmodulin), P0DP29
# Test: other fluorescence titration
# Settings: remark: other sources report otherwise
binder,measurement,value
B1,stoichiometry N,1
